Experimental data reported in article PMC6810650 (Cell, 2019).

Columns and labels:
6His-PUX7 = biological target: T1, 6His-PUX7 (Arabidopsis thaliana, UniProt Q94JZ8 1-468); test: ITC
T1 sequence (looked up): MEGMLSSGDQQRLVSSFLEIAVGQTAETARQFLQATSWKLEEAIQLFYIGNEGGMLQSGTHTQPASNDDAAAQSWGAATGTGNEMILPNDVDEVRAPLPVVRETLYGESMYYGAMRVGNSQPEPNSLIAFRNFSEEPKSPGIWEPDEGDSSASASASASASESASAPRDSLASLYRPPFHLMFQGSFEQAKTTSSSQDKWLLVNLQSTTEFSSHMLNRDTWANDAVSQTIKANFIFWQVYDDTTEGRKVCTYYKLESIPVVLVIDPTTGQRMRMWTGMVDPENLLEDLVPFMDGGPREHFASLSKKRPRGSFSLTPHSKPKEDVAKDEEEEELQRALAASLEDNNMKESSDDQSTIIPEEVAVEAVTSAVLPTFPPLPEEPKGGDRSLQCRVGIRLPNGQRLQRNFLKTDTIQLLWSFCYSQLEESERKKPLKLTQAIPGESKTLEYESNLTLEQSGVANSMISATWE

6His-PUX8 = biological target: T2, 6His-PUX8 (Arabidopsis thaliana, UniProt F4JPR7 1-564); test: ITC
T2 sequence (looked up): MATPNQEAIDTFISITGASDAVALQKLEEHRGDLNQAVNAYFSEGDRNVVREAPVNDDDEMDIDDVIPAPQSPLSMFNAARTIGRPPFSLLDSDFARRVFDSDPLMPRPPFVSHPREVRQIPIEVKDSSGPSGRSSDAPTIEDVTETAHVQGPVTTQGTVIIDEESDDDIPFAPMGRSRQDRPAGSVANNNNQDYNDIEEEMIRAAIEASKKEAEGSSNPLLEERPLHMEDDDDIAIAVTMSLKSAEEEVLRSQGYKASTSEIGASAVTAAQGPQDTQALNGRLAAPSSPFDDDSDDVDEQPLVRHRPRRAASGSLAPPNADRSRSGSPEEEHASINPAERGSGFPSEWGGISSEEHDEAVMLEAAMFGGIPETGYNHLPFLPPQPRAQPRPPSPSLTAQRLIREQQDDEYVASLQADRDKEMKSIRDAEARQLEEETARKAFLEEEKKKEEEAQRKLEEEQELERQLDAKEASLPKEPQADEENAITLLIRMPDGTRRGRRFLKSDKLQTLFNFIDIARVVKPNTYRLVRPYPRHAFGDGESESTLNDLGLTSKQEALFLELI

6His-PUX9 = biological target: T3, 6His-PUX9 (Arabidopsis thaliana, UniProt Q4V3D3 1-469); test: ITC
T3 sequence (looked up): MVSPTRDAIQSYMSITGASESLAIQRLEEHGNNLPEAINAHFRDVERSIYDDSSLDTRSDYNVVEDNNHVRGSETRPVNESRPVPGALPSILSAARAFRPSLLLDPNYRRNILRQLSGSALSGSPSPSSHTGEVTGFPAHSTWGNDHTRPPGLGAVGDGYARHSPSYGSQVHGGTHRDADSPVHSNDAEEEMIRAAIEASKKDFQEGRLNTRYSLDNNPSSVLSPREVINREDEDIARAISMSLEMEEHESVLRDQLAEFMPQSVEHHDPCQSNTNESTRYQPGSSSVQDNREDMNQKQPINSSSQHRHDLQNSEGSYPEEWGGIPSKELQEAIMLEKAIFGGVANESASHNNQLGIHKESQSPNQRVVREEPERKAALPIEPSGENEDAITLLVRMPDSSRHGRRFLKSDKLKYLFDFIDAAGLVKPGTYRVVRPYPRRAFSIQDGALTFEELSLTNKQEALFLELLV

6His-PUX13 = biological target: T4, 6His-PUX13 (Arabidopsis thaliana, UniProt Q9C5G7 1-525); test: ITC
T4 sequence (looked up): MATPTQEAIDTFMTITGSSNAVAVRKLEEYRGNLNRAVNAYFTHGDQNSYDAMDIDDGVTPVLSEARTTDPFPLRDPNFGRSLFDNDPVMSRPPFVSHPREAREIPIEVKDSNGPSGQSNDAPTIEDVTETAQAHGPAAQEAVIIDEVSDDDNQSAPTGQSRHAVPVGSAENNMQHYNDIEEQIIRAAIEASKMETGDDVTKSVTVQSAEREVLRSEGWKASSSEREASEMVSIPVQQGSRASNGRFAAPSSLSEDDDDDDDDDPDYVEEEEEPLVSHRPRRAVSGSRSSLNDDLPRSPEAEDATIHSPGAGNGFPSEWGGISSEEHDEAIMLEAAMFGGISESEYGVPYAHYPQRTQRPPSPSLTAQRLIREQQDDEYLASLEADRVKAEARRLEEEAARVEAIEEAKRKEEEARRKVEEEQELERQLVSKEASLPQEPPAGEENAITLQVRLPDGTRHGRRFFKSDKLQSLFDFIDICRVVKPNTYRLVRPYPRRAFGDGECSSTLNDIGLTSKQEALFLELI

[1] = biological target: T5, GST-RPN10 (amino acids 201 to 386) (Arabidopsis thaliana, UniProt P55034 201-386); test: pull-down
T5 sequence (looked up): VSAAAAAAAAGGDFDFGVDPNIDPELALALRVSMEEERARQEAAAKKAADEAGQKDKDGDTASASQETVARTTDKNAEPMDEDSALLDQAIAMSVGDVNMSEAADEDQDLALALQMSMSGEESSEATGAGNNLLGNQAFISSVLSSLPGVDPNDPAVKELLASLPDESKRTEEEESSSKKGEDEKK

HA-DSK2a = biological target: T6, HA-DSK2a (Arabidopsis thaliana, UniProt Q9SII9 1-538); test: pull-down
T6 sequence (looked up): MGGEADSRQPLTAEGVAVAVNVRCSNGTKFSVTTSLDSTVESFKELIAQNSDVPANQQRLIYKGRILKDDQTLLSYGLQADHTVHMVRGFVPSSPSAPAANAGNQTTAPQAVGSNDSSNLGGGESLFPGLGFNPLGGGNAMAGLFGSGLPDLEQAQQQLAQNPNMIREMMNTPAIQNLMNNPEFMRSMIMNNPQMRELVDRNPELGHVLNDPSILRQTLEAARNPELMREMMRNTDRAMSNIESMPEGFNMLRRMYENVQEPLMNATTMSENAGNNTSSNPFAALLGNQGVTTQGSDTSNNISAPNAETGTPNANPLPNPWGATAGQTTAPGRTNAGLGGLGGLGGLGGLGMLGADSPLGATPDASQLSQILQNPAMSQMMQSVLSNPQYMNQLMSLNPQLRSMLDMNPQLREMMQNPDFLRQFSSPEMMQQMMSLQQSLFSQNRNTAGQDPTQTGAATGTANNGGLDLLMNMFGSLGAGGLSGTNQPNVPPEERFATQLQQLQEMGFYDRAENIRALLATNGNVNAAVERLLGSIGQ

[2] = biological target: T7, Arabidopsis DSK2a (pull-down of Figure S1E) (Arabidopsis thaliana, UniProt Q9SII9 1-538); test: pull-down
T7 sequence (looked up): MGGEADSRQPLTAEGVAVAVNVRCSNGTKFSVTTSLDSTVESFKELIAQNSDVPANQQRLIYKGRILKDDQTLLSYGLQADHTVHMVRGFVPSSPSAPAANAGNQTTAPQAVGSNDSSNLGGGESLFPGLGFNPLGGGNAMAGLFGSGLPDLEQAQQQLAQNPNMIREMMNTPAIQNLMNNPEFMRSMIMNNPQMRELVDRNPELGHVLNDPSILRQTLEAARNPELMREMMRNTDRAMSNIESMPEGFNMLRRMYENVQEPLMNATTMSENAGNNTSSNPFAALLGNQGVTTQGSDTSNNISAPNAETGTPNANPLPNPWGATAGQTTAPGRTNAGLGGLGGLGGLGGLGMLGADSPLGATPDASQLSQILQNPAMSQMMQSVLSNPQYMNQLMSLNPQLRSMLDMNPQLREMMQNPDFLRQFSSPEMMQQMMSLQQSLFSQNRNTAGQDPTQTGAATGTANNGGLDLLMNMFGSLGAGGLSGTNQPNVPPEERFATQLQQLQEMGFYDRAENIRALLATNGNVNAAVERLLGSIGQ

GST-PUX7 = biological target: T8, GST-PUX7 (Arabidopsis thaliana, UniProt Q94JZ8 1-468); test: pull-down
T8 sequence (looked up): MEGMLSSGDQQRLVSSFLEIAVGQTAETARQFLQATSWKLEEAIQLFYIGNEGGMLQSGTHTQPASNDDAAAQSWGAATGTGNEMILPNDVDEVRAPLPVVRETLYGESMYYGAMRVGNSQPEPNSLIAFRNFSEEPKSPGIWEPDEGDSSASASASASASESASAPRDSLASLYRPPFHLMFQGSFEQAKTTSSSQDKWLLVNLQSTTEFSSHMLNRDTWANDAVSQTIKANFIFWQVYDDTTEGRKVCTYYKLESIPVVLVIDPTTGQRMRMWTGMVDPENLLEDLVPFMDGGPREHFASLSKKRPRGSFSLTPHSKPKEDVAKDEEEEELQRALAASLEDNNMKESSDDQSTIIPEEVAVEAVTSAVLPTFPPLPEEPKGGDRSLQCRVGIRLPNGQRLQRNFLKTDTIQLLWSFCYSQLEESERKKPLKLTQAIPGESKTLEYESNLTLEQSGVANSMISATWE

GST-PUX8 = biological target: T9, GST-PUX8 (Arabidopsis thaliana, UniProt F4JPR7 1-564); test: pull-down
T9 sequence (looked up): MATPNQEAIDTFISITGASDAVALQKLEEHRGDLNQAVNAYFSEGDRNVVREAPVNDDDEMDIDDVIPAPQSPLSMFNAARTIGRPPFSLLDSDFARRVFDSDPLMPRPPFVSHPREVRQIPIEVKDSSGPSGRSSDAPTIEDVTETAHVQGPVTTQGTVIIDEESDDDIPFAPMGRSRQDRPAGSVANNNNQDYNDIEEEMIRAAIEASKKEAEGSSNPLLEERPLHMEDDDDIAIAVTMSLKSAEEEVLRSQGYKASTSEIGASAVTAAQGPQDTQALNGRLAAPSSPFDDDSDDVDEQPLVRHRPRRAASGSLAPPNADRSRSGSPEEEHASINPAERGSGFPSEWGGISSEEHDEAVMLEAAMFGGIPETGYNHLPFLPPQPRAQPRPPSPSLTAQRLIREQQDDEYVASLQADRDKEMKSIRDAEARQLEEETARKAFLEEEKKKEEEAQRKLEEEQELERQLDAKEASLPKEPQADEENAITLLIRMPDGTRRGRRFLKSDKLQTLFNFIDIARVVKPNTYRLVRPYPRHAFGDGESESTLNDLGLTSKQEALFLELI

GST-PUX9 = biological target: T10, GST-PUX9 (Arabidopsis thaliana, UniProt Q4V3D3 1-469); test: pull-down
T10 sequence (looked up): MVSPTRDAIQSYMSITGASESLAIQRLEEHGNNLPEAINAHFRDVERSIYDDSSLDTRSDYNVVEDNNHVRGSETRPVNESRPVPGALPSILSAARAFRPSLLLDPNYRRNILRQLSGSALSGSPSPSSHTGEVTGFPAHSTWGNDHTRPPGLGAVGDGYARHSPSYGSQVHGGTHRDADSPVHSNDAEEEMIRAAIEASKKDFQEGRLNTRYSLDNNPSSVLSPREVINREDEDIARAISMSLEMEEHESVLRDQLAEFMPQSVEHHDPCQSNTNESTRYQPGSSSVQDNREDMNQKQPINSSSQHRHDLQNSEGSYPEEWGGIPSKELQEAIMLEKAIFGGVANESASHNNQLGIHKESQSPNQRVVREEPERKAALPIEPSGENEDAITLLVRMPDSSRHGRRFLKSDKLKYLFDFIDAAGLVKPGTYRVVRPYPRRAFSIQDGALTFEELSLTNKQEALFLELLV

GST-PUX13 = biological target: T11, GST-PUX13 (Arabidopsis thaliana, UniProt Q9C5G7 1-525); test: pull-down
T11 sequence (looked up): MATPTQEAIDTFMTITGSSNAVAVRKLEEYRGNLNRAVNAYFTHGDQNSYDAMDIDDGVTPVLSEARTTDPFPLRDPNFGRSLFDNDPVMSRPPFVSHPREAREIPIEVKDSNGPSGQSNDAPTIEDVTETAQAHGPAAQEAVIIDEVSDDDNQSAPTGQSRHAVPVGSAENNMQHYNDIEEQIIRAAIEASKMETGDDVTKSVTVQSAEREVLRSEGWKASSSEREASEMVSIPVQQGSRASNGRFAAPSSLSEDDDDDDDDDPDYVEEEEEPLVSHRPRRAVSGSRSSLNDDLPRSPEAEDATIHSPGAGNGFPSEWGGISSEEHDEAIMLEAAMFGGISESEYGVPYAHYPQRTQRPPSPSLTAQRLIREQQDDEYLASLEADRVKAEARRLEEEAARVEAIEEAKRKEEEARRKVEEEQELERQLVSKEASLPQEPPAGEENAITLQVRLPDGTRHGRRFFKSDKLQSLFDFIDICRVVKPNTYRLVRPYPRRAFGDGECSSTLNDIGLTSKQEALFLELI

GST-Ubx5 = biological target: T12, GST-Ubx5 (S. cerevisiae, UniProt Q06682 1-500); test: pull-down
T12 sequence (looked up): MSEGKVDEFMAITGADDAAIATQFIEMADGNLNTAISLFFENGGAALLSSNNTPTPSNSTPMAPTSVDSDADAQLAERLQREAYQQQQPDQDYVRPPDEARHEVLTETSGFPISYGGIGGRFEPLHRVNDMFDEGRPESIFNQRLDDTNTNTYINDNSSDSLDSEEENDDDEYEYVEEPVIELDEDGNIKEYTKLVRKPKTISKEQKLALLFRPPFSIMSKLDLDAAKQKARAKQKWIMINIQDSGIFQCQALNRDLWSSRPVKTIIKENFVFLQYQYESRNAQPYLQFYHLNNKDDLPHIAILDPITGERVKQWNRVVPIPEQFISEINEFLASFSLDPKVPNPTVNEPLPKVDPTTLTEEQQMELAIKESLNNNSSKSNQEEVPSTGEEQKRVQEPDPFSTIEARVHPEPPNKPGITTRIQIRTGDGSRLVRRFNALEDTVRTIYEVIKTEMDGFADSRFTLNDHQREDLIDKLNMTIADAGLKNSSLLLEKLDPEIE

Measured: binding result

B1: 6His-ATG8e (natural protein, Arabidopsis thaliana, UniProt Q8S926 1-118, looked up)
chain: MNKGSIFKMDNDFEKRKAEAGRIREKYPDRIPVIVEKAEKSEVPNIDKKKYLVPSDLTVGQFVYVIRKRIKLSAEKAIFIFVDNVLPPTGELMSSVYEDKKDEDGFLYITYSGENTFG
not listed: GST-Ubx5
binds: all other assays above

B2: 6His-Atg8 (yeast) (natural protein, S. cerevisiae, UniProt P38182 1-116, looked up)
chain: MKSTFKSEYPFEKRKAESERIADRFKNRIPVICEKAEKSDIPEIDKRKYLVPADLTVGQFVYVIRKRIMLPPEKAIFIFVNDTLPPTAALMSAIYQEHKDKDGFLYVTYSGENTFG
binds: GST-Ubx5
